Patent US20210380703A1 (RIGEL PHARMACEUTICALS, published 2021)
Numbering of substitutions follows the chain as printed.

B1: 374_F02 (antibody, V domains shown)
VH: EVQLLESGGGLVQPGGSLRLSCAASGFTFDSYSMNWVRQAPGKGLEWVANINYNSGYTSYADSVKGRFTISRDNSKNTLYLQMNSLRAEDTAVYYCARSANWHDTALDYWGQGTLVTVSS
VL: DIQMTQSPSSLSASVGDRVTITCRASQSIVSYLNWYQQKPGKAPKLLIYAASSLQSGVPSRFSGSGSGTDFTLTISSLQPEDFATYYCQQSYELPLTFGGGTKVEIK
notes: VH/VL only
B2: 375_D04 (antibody, V domains shown)
VH: B1 VH with S31D, Y32S, N35H, A49S, S55G, S59G, R98K
VL: B1 VL with V30L, L33V, L47V, S52T, L54R, Q55A
notes: VH/VL only
B3: 376_F04 (antibody, V domains shown)
VH: B1 VH with A49S, S59G
VL: not shown
notes: VH/VL only
B4: 376_B11 (antibody, V domains shown)
VH: B1 VH with D30S, A49S, N50G, S55G
VL: B1 VL with V30L, L33V, L47V, S52T, L54R, Q55A, E93D
notes: VH/VL only
B5: 376_B06 (antibody, V domains shown)
VH: B1 VH with D30S, N50G, T58K, S59G, N101T, A106H
VL: B1 VL with V30L, S31T, S52T, L54R, Q55A, E93D
notes: VH/VL only
B6: 376_E08 (antibody, V domains shown)
VH: B1 VH with D30S, S31D, S33G, N50G, S55G
VL: B1 VL with L33V, L47V, S52T, L54R, Q55A, E93D, L94S
notes: VH/VL only
B7: 376_B04 (antibody, V domains shown)
VH: B1 VH with S33G, N35H, N50S, S55G, S59G
VL: B1 VL with L33V, L47V, S52T, L54R, Q55A, E93D, L94T
notes: VH/VL only
B8: 376_C12 (antibody, V domains shown)
VH: B1 VH with D30S, N50G, S55G, S59G
VL: B1 VL with V30L, S31T, L33V, S52T, L54R, Q55A, E93D, L94S
notes: VH/VL only
B9: 376_C01 (antibody, V domains shown)
VH: B1 VH with N50G, S55G
VL: B1 VL with V30L, S31T, S52T, Q55A, E93D, L94N
notes: VH/VL only
B10: 376_D11 (antibody, V domains shown)
VH: B1 VH with D30S, S33G, S55G, S59G
VL: B1 VL with V30L, L47V, S52T, L54R, Q55A, E93N, L94N
notes: VH/VL only
B11: 376_E12 (antibody, V domains shown)
VH: B1 VH with D30S, N50G, S55G, T58K, N101T, A106H
VL: not shown
notes: VH/VL only
B12: 376_G08 (antibody, V domains shown)
VH: B1 VH with S33G, S55G
VL: B1 VL with V30L, L33V, L47V, S52T, L54R, Q55A, E93D, L94T
notes: VH/VL only
B13: 376_C02 (antibody, V domains shown)
VH: B1 VH with S33G, A49S, N50G
VL: B1 VL with L47V, A51V, S52T, L54R, Q55A, E93D, L94S
notes: VH/VL only
B14: 376_E03 (antibody, V domains shown)
VH: B1 VH with D30S, S33G, S55G, S59G
VL: B1 VL with V30L, L33V, L47V, S52T, Q55A, E93D
notes: VH/VL only
B15: 376_D05 (antibody, V domains shown)
VH: B1 VH with D30S, A49S, S55G, T58K, S59G
VL: B1 VL with L33V, S52T, Q55A, E93D, L94T
notes: VH/VL only
B16: 376_B09 (antibody, V domains shown)
VH: B1 VH with T58K, S59G
VL: B1 VL with V30L, S31T, L33V, L47V, S52T, L54R, Q55A, E93D
notes: VH/VL only
B17: 376_F03 (antibody, V domains shown)
VH: B1 VH with S33G, S55G, S59G
VL: B1 VL with V30I, S31T, L33V, L47V, A51T, S52T, Q55A, E93S, L94S
notes: VH/VL only
B18: 376_C11 (antibody, V domains shown)
VH: B1 VH with N50G, T58K, N101T, A106H
VL: B1 VL with V30L, S31T, L47V, S52T, L54R, Q55A, E93D, L94N
notes: VH/VL only
B19: 376_B07 (antibody, V domains shown)
VH: B1 VH with A49S, N50G, N101T
VL: B1 VL with V30L, L47V, A50Y, A51V, S53N, L54R, Q55A, E93D, L94N
notes: VH/VL only
B20: 376_B05 (antibody, V domains shown)
VH: B1 VH with D30S, S55G, S59G
VL: B1 VL with V30I, L33V, S52T, L54R, Q55A
notes: VH/VL only
B21: 376_C06 (antibody, V domains shown)
VH: B1 VH with D30S, S33G, N50G, S55G, N101T
VL: B1 VL with V30L, L47V, S52T, L54R, Q55A, E93D, L94S
notes: VH/VL only
B22: 376_F12 (antibody, V domains shown)
VH: B1 VH with S31D, N50G, S55G, T58K, N101T, A106H
VL: not shown
notes: VH/VL only
B23: 376_G09 (antibody, V domains shown)
VH: B1 VH with A49S, N50G, T58K, S59G
VL: B1 VL with V30S, S31Y, A51V, S52T, L54R, Q55A, E93D, L94N
notes: VH/VL only
B24: 376_H10 (antibody, V domains shown)
VH: B1 VH with A49S, N50G, T58K
VL: B1 VL with V30L, S31T, L47V, S52T, L54R, Q55H, E93D, L94S
notes: VH/VL only
B25: 376_H09 (antibody, V domains shown)
VH: B1 VH with D30S, S31D, S55G, S59G
VL: B1 VL with V30I, S31T, L47V, A50Y, A51V, S53N, Q55P, E93D, L94S
notes: VH/VL only
B26: 375_E10 (antibody, V domains shown)
VH: B1 VH with D30S, A49S, N50G, S55G, S99G
VL: B1 VL with V30L, L47V, S52T, L54R, Q55A, E93D, L94N
notes: Group III
B27: 367_D03 (antibody, V domains shown)
VH: B1 VH with A49S, N50S, S55G, S59G, S99G, A106H
VL: B1 VL with V30I, S31T, S52T, L54R, Q55A, E93D, L94T
notes: Group III
B28: 367_C07 (antibody, V domains shown)
VH: B1 VH with D30S, A49S, N50S, S59G, S99G, A106H
VL: B1 VL with V30L, S31T, L33V, S52T, L54R, Q55A, E93N
notes: Group III
B29: 367_B01 (antibody, V domains shown)
VH: B1 VH with D30S, N50G, S55G, T58K, S59G, S99G
VL: B1 VL with V30S, L33V, L47V, S52T, L54R, Q55A, E93S, L94T
notes: Group III
B30: 367_B12 (antibody, V domains shown)
VH: B1 VH with D30S, S33G, N35H, N50S, S55G, T58K, S99G, A106H
VL: B1 VL with V30L, L33V, L47V, S52T, Q55A, E93D, L94T
notes: Group III
B31: 367_A12 (antibody, V domains shown)
VH: B1 VH with D30S, S33G, A49S, N50G, S99G, A106H
VL: B1 VL with V30L, S52T, Q55H, E93N, L94N
notes: Group III
B32: 367_B04 (antibody, V domains shown)
VH: B1 VH with A49S, N50G, T58K, S99G, A106H
VL: B1 VL with V30L, S52T, L54R, Q55A
notes: Group III
B33: 367_C10 (antibody, V domains shown)
VH: B1 VH with A49S, N50G, S55G, S99G
VL: B1 VL with L33V, A51V, S52T, L54R, Q55A, L94T
notes: Group III
B34: 367_A10 (antibody, V domains shown)
VH: B1 VH with D30S, S33G, N50G, S99G, A106H
VL: B1 VL with V30I, S31T, L33V, S52T, Q55A, E93D
notes: Group III

Biological target: T1, biotinylated goat anti-human kappa light chain
T1 construct: Positive control of the ELISA
Experiment: ELISA; positive control
How it was run: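 Monoclonal antibodies were first applied to human or mouse ACVR2A, alongside biotinylated goat anti-human kappa light chain (positive control) and human Fc (negative control); binding was then determined by ELISA.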
Also: test concentration or dose not given here.

optical density | Binder
3.16 OD | B1
3.17 OD | B2
3.42 OD | B3
3.61 OD | B4
3.46 OD | B5
3.47 OD | B6
3.58 OD | B7
3.39 OD | B8
3.2 OD | B9
3.43 OD | B10
3.42 OD | B11
3.47 OD | B12
3.44 OD | B13
3.42 OD | B14
3.34 OD | B15
3.51 OD | B16
3.44 OD | B17
3.46 OD | B18
3.53 OD | B19
3.52 OD | B20
3.43 OD | B21
3.44 OD | B22
3.45 OD | B23
3.54 OD | B24
3.46 OD | B25

Biological target: T2, human ACVR2A (human, UniProt P27037 20-135, limits assumed)
T2 construct: coated antigen of the initial ELISA; also called activin receptor, type II A
Experiment: ELISA
How it was run: (§1)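 ELISA measured binding of ACVR2A-specific monoclonal antibodies to human and mouse ACVR2A. Biotinylated goat anti-human kappa light chain served as positive control and human Fc as negative control.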
T2 sequence (P27037 20-135 limits assumed): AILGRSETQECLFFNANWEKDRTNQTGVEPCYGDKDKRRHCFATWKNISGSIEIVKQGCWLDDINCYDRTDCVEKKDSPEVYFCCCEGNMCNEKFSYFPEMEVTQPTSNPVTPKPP

optical density | Binder
3.69 OD | B26
2.59 OD | B27
2.47 OD | B28
2.84 OD | B29
3.02 OD | B30
2.44 OD | B31
2.66 OD | B32
2.53 OD | B33
1.89 OD | B34

Biological target: mouse ACVR2A (mouse, UniProt P27038 20-135, limits assumed)
Experiment: ELISA
How it was run: as §1
Target sequence in this assay (P27038 20-135 limits assumed): as the sequence (P27037 20-135 limits assumed) above, with K20R, V73I counted along it

optical density | Binder
3.59 OD | B1
3.7 OD | B2
3.29 OD | B3
3.75 OD | B4
3.77 OD | B5
3.64 OD | B6
3.48 OD | B7
3.32 OD | B8
3.6 OD | B9
3.62 OD | B10
3.32 OD | B11
3.64 OD | B12
3.53 OD | B13
3.74 OD | B14
3.71 OD | B15
3.72 OD | B16
3.47 OD | B17
3.63 OD | B18
3.71 OD | B19
3.78 OD | B20
3.56 OD | B21
3.25 OD | B22
3.65 OD | B23
3.29 OD | B24
3.3 OD | B25

Biological target: T3, mouse ACVR2A (mouse, UniProt P27038 20-135, limits assumed)
T3 construct: coated antigen of the initial ELISA
Experiment: ELISA
How it was run: as §1
T3 sequence (P27038 20-135 limits assumed): as the sequence (P27037 20-135 limits assumed) above, with K20R, V73I counted along it

optical density | Binder
3.79 OD | B26
2.45 OD | B27
2.52 OD | B28
2.91 OD | B29
3.03 OD | B30
2.42 OD | B31
3.1 OD | B32
2.61 OD | B33
2.16 OD | B34

Biological target: human ACVR2A (human, UniProt P27037 20-135, limits assumed)
Experiment: ELISA
How it was run: as §1
Target sequence in this assay (P27037 20-135 limits assumed): as the sequence (P27037 20-135 limits assumed) above

optical density | Binder
3.56 OD | B1
3.69 OD | B2
3.07 OD | B3
3.69 OD | B4
3.7 OD | B5
3.64 OD | B6
3.41 OD | B7
3.7 OD | B8
3.26 OD | B9
3.7 OD | B10
3.61 OD | B11
3.69 OD | B12
3.44 OD | B13
3.79 OD | B14
3.6 OD | B15
3.78 OD | B16
3.29 OD | B17
3.7 OD | B18
3.73 OD | B19
3.65 OD | B20
3.49 OD | B21
3.13 OD | B22
3.68 OD | B23
3.28 OD | B24
3.32 OD | B25

Biological target: T4, biotinylated goat anti-human kappa light chain
T4 construct: positive control of the ELISA
Experiment: ELISA, positive control
Method: The binding of ACVR2A-specific monoclonal antibodies to human ACVR2A, mouse ACVR2A, biotinylated goat anti-human kappa light chain (positive control) and human Fc (negative control) were determined by ELISA.

optical density | Binder
3.29 OD | B26
3.46 OD | B27
3.41 OD | B28
3.67 OD | B29
3.75 OD | B30
3.65 OD | B31
3.34 OD | B32
3.39 OD | B33
3.39 OD | B34
